Measurements as given in patent US20170233480A1 (DEVELOPMENT CENTER FOR BIOTECHNOLOGY, published 2017).
Each block holds one binder with its values, some of them ahead of it.

Key:
mouse VEGFR-2 = mouse VEGFR-2 (mouse, UniProt P35918 20-762); test: ELISA, plate coated with mouse VEGFR-2, HRP-anti-human IgG, OD450-650; bar chart of two runs (1st, 2nd); antibody concentration not given
Protocol: (§1) An ELSA plate was coated with 100 μL per well of human VEGFR-2, mouse VEGFR2, human VEGFR1 or human VEGFR3 overnight at 4° C., and then rinsed 3 times with PBS and blocked with 300 μL per well of 5% MPBS for 2 hr at 37° C. The wells were rinsed 3 times with PBS, and 100 μL of anti-VEGFR2 antibody, 2 fold serial dilutions, was added and incubated for 90 min at 37° C. The test solution was discarded and washed 3 times with PBS. Appropriate dilution of HRP-anti-Human IgG antibody in 5% MPBS (1:10000) was added and incubated for 60 min at 37° C., and the wells were washed 3 times with PBS. The wells were developed with 100 μL of substrate solution TMB and the reactions were terminated by adding 50 μL of 1 M sulfuric acid. The color turned yellow and the OD at 650 nm and at 450 nm was assayed.

[1] = target: T1, human VEGFR-2 (domains 1 to 7) (human, UniProt P35968 20-764); test: kinetic analysis with Rmax in RU, VEGFR-2 (domains 1 to 7) as analyte; method not named
T1 construct: The immunogen was VEGFR2-Fc-His and panning used VEGFR2-His; also called R2 D1-7; KDR
T1 sequence (P35968 20-764 Q472H limits assumed): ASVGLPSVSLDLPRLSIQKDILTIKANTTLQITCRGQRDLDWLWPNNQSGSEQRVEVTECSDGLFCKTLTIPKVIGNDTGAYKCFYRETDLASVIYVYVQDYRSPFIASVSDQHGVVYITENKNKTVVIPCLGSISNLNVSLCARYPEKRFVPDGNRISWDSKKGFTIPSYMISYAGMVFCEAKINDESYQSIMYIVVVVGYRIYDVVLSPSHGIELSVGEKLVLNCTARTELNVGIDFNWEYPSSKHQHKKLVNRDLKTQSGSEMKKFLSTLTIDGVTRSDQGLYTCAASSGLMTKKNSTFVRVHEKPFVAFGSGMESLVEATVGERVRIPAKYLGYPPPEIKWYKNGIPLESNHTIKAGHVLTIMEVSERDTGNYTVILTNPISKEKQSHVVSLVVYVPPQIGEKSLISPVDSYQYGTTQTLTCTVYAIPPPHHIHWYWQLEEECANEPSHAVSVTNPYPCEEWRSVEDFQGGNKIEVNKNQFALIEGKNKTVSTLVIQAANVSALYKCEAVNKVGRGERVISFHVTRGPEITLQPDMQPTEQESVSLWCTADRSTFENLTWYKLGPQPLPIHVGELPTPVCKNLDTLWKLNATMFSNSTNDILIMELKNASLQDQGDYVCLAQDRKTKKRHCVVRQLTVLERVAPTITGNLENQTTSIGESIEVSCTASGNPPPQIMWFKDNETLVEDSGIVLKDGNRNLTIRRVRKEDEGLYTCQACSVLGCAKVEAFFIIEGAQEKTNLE

[2] = target: T1, human VEGFR-2 (domains 1 to 7); test: ELISA on VEGFR-2 D1-7 and point mutants mut.1 to mut.10, antibody titration 6.86E-05 to 0.15 ug/ml, OD450
human VEGFR-3 = target: T2, human VEGFR-3 (human, UniProt P35916 25-775, limits assumed); test: ELISA, plate coated with hVEGFR3 (0.1 µg/mL), antibody titration, OD450-650
T2 construct: also called flt-4
T2 sequence (looked up): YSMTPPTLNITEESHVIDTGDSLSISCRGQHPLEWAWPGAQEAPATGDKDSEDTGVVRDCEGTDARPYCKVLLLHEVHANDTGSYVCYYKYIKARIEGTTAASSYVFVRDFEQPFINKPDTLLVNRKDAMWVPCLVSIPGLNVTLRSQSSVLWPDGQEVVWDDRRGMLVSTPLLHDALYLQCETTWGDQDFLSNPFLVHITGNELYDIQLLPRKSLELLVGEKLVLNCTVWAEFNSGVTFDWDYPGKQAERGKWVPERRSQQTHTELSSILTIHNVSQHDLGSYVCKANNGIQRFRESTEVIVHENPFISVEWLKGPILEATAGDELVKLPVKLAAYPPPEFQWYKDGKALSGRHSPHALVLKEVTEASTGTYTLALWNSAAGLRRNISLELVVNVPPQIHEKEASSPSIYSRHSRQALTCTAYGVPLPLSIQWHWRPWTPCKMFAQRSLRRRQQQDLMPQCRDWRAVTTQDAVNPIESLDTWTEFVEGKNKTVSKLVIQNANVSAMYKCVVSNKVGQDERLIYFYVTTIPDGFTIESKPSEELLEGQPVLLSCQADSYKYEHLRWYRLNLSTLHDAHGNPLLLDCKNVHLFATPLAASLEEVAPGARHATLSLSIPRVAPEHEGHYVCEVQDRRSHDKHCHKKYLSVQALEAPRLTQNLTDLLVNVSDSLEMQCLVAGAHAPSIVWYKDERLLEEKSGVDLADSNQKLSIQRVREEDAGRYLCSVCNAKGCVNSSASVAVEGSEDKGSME
Protocol: as §1

human VEGFR-1 = target: T3, human VEGFR-1 (human, UniProt P17948 27-758, limits assumed); test: ELISA, plate coated with hVEGFR1 (0.1 µg/mL), antibody titration, OD450-650
T3 construct: also called flt-1
T3 sequence (P17948 27-758 limits assumed): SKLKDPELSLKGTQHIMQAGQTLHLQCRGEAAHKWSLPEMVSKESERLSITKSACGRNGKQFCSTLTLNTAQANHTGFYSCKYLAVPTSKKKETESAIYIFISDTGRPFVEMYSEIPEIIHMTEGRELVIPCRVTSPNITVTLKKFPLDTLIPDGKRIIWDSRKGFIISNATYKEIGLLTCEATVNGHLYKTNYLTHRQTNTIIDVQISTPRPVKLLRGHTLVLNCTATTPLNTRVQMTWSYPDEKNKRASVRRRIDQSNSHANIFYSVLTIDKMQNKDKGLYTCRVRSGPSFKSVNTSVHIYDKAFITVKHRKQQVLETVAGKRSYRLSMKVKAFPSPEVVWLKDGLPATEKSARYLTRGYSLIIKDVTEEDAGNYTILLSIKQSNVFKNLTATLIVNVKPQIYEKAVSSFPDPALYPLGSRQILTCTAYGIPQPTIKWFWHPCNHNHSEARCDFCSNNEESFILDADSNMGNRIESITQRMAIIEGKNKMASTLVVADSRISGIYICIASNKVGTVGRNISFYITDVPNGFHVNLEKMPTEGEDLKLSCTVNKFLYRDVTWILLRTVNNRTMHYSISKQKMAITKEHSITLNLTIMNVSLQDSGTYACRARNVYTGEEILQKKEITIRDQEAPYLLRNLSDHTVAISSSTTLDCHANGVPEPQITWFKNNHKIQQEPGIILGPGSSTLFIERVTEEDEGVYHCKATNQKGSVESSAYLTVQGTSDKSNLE
Protocol: as §1

[3] = target: T1, human VEGFR-2 (domains 1 to 7); test: ELISA and BIAcore; no numbers given

mouse VEGFR-2, sequence (P35918 20-762 limits assumed): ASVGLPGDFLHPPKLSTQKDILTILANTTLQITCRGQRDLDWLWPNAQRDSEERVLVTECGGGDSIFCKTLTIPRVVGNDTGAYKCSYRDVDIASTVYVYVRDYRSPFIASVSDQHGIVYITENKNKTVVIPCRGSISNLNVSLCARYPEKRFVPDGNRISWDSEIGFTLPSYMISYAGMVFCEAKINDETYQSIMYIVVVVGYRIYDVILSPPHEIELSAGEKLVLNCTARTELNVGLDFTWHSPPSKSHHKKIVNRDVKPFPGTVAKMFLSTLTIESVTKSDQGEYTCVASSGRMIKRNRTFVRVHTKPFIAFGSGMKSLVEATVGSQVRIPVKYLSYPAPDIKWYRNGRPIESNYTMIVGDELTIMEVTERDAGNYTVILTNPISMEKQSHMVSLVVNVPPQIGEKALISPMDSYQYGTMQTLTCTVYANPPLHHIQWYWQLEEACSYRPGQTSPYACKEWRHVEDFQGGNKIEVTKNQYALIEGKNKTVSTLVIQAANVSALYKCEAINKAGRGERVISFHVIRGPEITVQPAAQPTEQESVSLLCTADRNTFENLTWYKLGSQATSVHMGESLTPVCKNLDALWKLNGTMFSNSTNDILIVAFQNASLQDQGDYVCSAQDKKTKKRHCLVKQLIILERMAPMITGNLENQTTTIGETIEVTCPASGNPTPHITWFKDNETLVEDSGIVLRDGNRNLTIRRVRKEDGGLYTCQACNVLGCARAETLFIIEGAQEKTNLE

binding result (mouse VEGFR-2): binds
Kd [1]: 0.673 nM
EC50 (read off the curve) [2]: ~5 ng/mL
binding result (human VEGFR-3): no binding (tested: about 1.3e-7 M)
B1: 322A6 (antibody, V domains shown)
VH: EVQLQQSGPQLVRPGASAKISCKASGYAFTTYWMHWVKQRPGQGLEWIGMIDFSDSETKLNQRFKGKATLTVDKSSSTAYMQLSSPTSEDSAVYYCARDVRGNFDVWGAGTTVTVSS
VL: DIVLTQSPASLAVSLGQRATISCRASKSVSTSGYSYMHWYQQKPGQPPKLLIYLASNLESGVPARFSGSGSGTDFTLNIHPVEEEDAATYYCQHSRELPWTFGGGTKLEIKR
notes: Expressed as a full-length antibody in FreeStyle 293 cells from mouse-derived VH and VL; It was detected with anti-human IgG and anti-human kappa; also called 322A6 (45); c45
binding result (human VEGFR-1): no binding (tested: 20 µg/mL (about 1.3e-7 M))

binding result (mouse VEGFR-2): no binding
Kd [1]: 4.6 nM
B2: 12A6 (antibody, V domains shown)
VH: QVQLQQSGPELVKPGASVKVSCKASGYSFTDYSMYWVKQSHGKSLEWIGYIDPYNDDTSYKQKFKGKATLTVDKSSSTAFMHLNSLTSEDSAVYYCAKGYADAMDYWGQGTSVTVSS
VL: DIQMIQSPSSLSASLGDTITITCHASQNINVWLSWYQQKPGNIPKLLIYKASNLHTGVPSRFSGSGSGTGFTLTISSLQPEDIATYYCQQGQSYPLTFGAGTKLELKR
notes: Expressed as a full-length antibody in FreeStyle 293 cells and detected with anti-human IgG

binding result [3]: binds
B3: Hu322B1HdH (antibody, V domains shown)
VH: QVQLVQSGAEVKKPGASVKVSCKASGYAFTTYWMHWVRQAPGQGLEWIGMIDFSDSETKLNQRFKGKATLTVDKSTSTAYMELSSLRSEDTAVYYCARDVRGNFDVWGQGTLVTVSS
VL: DIQMTQSPSSLSASVGDRVTITCRASKSVSTSGYSYMHWYQQKPGKAPKLLIYLASNLESGVPSRFSGSGSGTDFTLTISSLQPEDFATYYCQHSRELPWTFGQGTKVEIKR
notes: Humanized 322A6; The expression vector encodes the human kappa light-chain and human IgG1 C regions; also called 322A6(HuB1-Hd); combination clone of heavy chain (HuB1) and light chain (Hd) with 7 amino acid back mutation (7+0)
